One assay relates to B lymphoma tissue. Briefly: Immunohistochemistry on cryopreserved lymph node biopsies. It counts as binding, human. Also noted: key: Increasing numbers of + indicate stronger staining.; ++: Increasing numbers of + indicate stronger staining.; +++: Increasing numbers of + indicate stronger staining. The procedure: Cryopreserved lymph node biopsies of patients with Anaplastic Large Cell B lymphoma (one patient), Centroblastic/Centrocytic B non-Hodgkin lymphoma (three patients), and B cell chronic lymphocytic leukaemia (one patient) were obtained from the Department of Pathology at Lund University (Lund, Sweden). Eight-micrometer sections of cryo-preserved tissue were fixed in acetone for 10 min at 4° C. Endogenous biotin-binding activity was blocked by sequential treatment with Avidin and Biotin (Avidin/Biotin blocking kit, Invitrogen) for 20 min each.
Tissues were incubated with 5 μg/ml control scFv or B11 scFv for 1 h. Following washing, sections were incubated with biotin-conjugated mouse anti-His mAb (R&D Systems) for 30 min. scFv binding was detected following treatment with ABC Complex/HRP reagent (Dako Cytomation) for 30 min, and subsequent incubation with DAB for 5 min.
Sections were photographed using a Leica DC 300F digital camera mounted on top of a Leica DMR light/fluorescence microscope.

Another assay concerns A549. Briefly: IgG binding to carcinoma cell line, flow cytometry MFI. On the set-up: species or system human. Conditions: A549, Lung carcinoma. The source says:
(§1) The antigen distribution of human antibody targeted antigens, mainly for B11, on different carcinoma cell lines was investigated. Cells (MCF-7 and MDA MB 435S breast carcinoma, JAR and JEG-3 chorio-carcinoma, A549 lung carcinoma, TCC-SUP urinary bladder carcinoma, MDA MB 435 melanoma, HPAC, PANC-1 and BxPC-3 pancreatic carcinoma, PC-3 and DU145 prostate carcinoma, LS174 T, CaCo2, and Lovo colorectal carcinoma, and THP-1 monocytic leukaemia cells), were washed in PBS, and resuspended at 4×10^6 cells/ml in Complete Medium (200,000 cells/50 […] sample). […] Cells were incubated with either of the antibodies for 1 hour on ice, washed by resuspension in PBS/BSA 0.5%, centrifuged at 1200 rpm for 5 min, and complete aspiration of the supernatants was undertaken. Cells were incubated with PE-conjugated Goat F(ab′)2 anti-Human IgG (Caltag Laboratories, Cat no: H10104), diluted 1/50 in PBS/BSA 0.5%, for 30 min, on ice. Following resuspension of in 300 μl PBS/BSA 0.5%, cells were analysed for IgG binding using a FACScan instrument.
Background: Flow cytometry measures light scatter and fluorescence of single cells or particles in a stream.

Another assay relates to BxPC-3. Described as above. Conditions: BxPC-3, Pancreatic carcinoma. Also noted: species or system human.
Source text: as §1

A further assay relates to CaCo2. The description is as above. Conditions: CaCo2, Colon carcinoma. Also noted: species or system human.
Source text: as §1

A further assay deals with JAR. Described as above. On the set-up: species or system human. The conditions noted are these: Chorio-carcinoma.
Source text: as §1

In a further assay the test system is Lovo. The assay is described as above. Conditions: Colon carcinoma. On the set-up: species or system human.
Source text: as §1

A further assay relates to PANC-1. The assay is described as above. The conditions noted are these: PANC-1, Pancreatic carcinoma. Also noted: species or system human.
Source text: as §1

A further assay concerns PC-3. Described as above. On the set-up: species or system human.
Source text: as §1

The next assay deals with TCC-SUP. The assay is described as above. The conditions noted are these: Urinary bladder carcinoma. Also noted: species or system human.
Source text: as §1

The test system of the next assay is Ramos cells. The assay is described as follows: Flow-cytometric IgG binding, Ramos cells mixed with peripheral blood leukocytes. Also noted: species or system human. An excerpt:
(§2) Washing was repeated twice.

The test system of another assay is monocyte cells. Described as above. On the set-up: species or system human.
Source text: as §2

Assay [1] deals with other monitored peripheral blood leukocyte subsets. Described as above. On the set-up: species or system human.
Source text: as §2

For assay [2], the system named is peripheral blood B lymphocytes. The assay is described as above. Also noted: species or system human.
Source text: as §2

Another assay has as its target ICAM-1 (Homo sapiens, UniProt P05362). The assay is described as follows: Radioiodinated IgG B11 binding to Ramos cells, Rosenthal-Scatchard analysis. On the set-up: endogenous in cells; host or cells: Ramos B lymphoma cells. As to the method: Iodination of 1 mg/ml of IgG1 B1 or IgG1 B11 proteins with [^125I] NaI was performed in PBS for 10 min using Iodogen pre-coated iodination tubes (Pierce). Free [^125I] NaI was removed by desalting on PD-10 columns (Amersham Biosciences), yielding specific radioactivities in the range of 1000-1600 cpm per ng protein. [^125I] IgG1 B1 and [^125I] IgG1 B11 was used for determination of antibody affinities.
Radioiodinated IgG B1 or IgG B11 was incubated with B lymphoma cells in DPBS-B-hIgG (DPBS-B containing 0.2 mg/ml human IgG) for 2 h on ice with intermittent mixing. Non-specific binding was determined in the presence of 0.2 mg/ml unlabelled IgG B1 or IgG B11 protein, as appropriate. […]
Cells were loaded on top 40% v/v Ficoll/DPBS-B cushions in individual tubes and were centrifuged at 400×g for 6 min at 4° C. […] Cell pellets and cell supernatants were isolated and analysed separately for ^125I-IgG protein content in a gamma counter, following cutting of the tubes in half.
Antibody affinity constants (Kd values) and epitope numbers per cell were determined from Scatchard plot analysis according to Rosenthal et al. (Anal. Biochem. (1967) 20:525-532); Bylund and Yamamura (Methods in Neurotransmitter Analysed, New York: Raven Press Ltd., 1990); and Marquardt (J. Soc. Indust. Appl. Math. (1963) 11:431-441), as previously described (Brix et al., J. Clin. Invest. (1998) 102:283-293). […]

Sequence of ICAM-1 (P05362 28-532): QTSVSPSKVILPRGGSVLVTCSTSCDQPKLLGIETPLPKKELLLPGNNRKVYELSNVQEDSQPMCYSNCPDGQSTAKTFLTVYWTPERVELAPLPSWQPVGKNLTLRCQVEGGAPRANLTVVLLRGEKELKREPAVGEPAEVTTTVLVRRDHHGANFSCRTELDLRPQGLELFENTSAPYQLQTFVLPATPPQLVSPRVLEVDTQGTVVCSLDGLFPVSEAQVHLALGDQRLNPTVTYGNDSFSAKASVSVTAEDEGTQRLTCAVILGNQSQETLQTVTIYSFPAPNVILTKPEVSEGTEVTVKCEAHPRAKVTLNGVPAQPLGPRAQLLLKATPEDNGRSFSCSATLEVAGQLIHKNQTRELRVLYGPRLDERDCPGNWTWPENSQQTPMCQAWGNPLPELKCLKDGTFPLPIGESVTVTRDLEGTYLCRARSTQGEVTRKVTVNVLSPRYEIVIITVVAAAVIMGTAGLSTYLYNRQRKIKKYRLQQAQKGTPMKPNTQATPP

B1: B11: fully human IgG1 antibody specific for ICAM-1; VH and VL sequences of FIG. 10 (SEQ ID NOs. 6 and 8) (antibody, listed as Homo sapiens, V domains shown)
VH: EVQLLESGGGLVQPGGSLRLSCAASGFTFSNAWMSWVRQAPGKGLEWVAFIWYDGSNKYYADSVKGRFTISRDNSKNTLYLQMNSLRAEDTAVYYCARYSGWYFDYWGQGTLVTVSS
VL: QSVLTQPPSASGTPGQRVTISCTGSSSNIGAGYDVHWYQQLPGTAPKLLIYDNNNRPSGVPDRFSGSKSGTSASLAISGLRSEDEADYYCQSYDSSLSAWLFGGGTKLTVLG
Consider B1, for which the “Staining of B lymphoma tissue” value is reported as “+” in the assay on B lymphoma tissue (Patient A, B-CLL (low malignant non-Hodgkin Lymphoma)); “++” in the assay on B lymphoma tissue (Patient B, Anaplastic Large Cell B Cell Lymphoma); “++” in the assay with B lymphoma tissue (Patient D, B-CLL/B-PLL); “++” in the assay with B lymphoma tissue (Patient F, Centroblastic-Centrocytic B non-Hodgkin Lymphoma). For the same molecule, the MFI in the assay with A549 was 800; in the assay with BxPC-3, 2000; with CaCo2, 800; in the assay with JAR, 2000; in the assay with Lovo, 1600; with PANC-1, 3800. Besides, the MFI in the assay on PC-3 (PC-3, Prostate carcinoma) turned out to be 1500; in the assay with TCC-SUP, 3200; with Ramos cells, 654; in the assay with monocyte cells, 176; in assay [2], 78. Moreover, the entries for the “binding” value (in the assay with PC-3 (PC-3 prostate carcinoma cells); in assay [1]) were “strong binding” and “negative”, respectively. The “concentration at which binding peaked” value in the assay on Ramos cells is 0.1 µg/mL. Further, the “functional binding sites (receptors) per cell” value in the assay with ICAM-1 (Rosenthal-Scatchard plot) is recorded as 47,400. For the same molecule, the “concentration at which saturable specific binding is reached” value with ICAM-1 (radioiodinated IgG) is reported as around 1 nM.

Values taken from patent US9803013B2, “Biological materials and uses thereof” (BioInvent International AB, priority 2005, dated 2017).
